Test results published in FireProtDB (doi:10.1016/0022-2836(92)90563-y).

B1: Ribonuclease, P00648 (parent)
chain: MMKMEGIALKKRLSWISVCLLVLVSAAGMLFSTAAKTETSSHKAHTEAQVINTFDGVADYLQTYHKLPDNYITKSEAQALGWVASKGNLADVAPGKSIGGDIFSNREGKLPGKSGRTWREADINYTSGFRNSDRILYSSDWLIYKTTDHYQTFTKIR

Variants of: B1
Conditions: Bacillus amyloliquefaciens; pH 6.3; 25 °C; Urea; Fluorescence; MES 50 micro M; reversible: yes; structure 1BNI; whole UniProt chain shown

Going from MMKMEGIALKKRLSWISVCLLVLVSAAGMLFSTAAKTETSSHKAHTEAQVINTFDGVADYLQSYHKLPDNYITKSEAQALGWVASKGNLADVAPGKSIGGDIFSNREGKLPGKSGRTWREADINYTSGFRNSDRILYSSDWLIYKTTDHYQTFTKIR to MMKMEGIALKKRLSWISVCLLVLVSAAGMLFSTAAKTETSSHKAHTEAQVINTFDGVADYLQRYHKLPDNYITKSEAQALGWVASKGNLADVAPGKSIGGDIFSNREGKLPGKSGRTWREADINYTSGFRNSDRILYSSDWLIYKTTDHYQTFTKIR, the “ddG of mutation (higher = less stable)” value falls from 1.68 kcal/mol to -0.47 kcal/mol.

Compared with MMKMEGIALKKRLSWISVCLLVLVSAAGMLFSTAAKTETSSHKAHTEAQVINTFDGVADYLQTYHKLPDNYITKSEAQALGWVASKGNLADVAPGKSIGGDVFSNREGKLPGKSGRTWREADINYTSGFRNSDRILYSSDWLIYKTTDHYQTFTKIR, MMKMEGIALKKRLSWISVCLLVLVSAAGMLFSTAAKTETSSHKAHTEAQVINTFDGVADYLQTYHKLPDNYITKSGAQALGWVASKGNLADVAPGKSIGGDIFSNREGKLPGKSGRTWREADINYTSGFRNSDRILYSSDWLIYKTTDHYQTFTKIR is higher in “ddG of mutation (higher = less stable)” value: 0.3 kcal/mol for the first, 1.76 kcal/mol for the second.

First: MMKMEGIALKKRLSWISVCLLVLVSAAGMLFSTAAKTETSSHKAHTEAQVVNTFDGVADYLQTYHKLPDNYITKSEAQALGWVASKGNLADVAPGKSIGGDIFSNREGKLPGKSGRTWREADINYTSGFRNSDRILYSSDWLIYKTTDHYQTFTKIR
Second: MMKMEGIALKKRLSWISVCLLVLVSAAGMLFSTAAKTETSSHKAHTEAQVINTFDGVADALQTYHKLPDNYITKSEAQALGWVASKGNLADVAPGKSIGGDIFSNREGKLPGKSGRTWREADINYTSGFRNSDRILYSSDWLIYKTTDHYQTFTKIR
The “ddG of mutation (higher = less stable)” value of the first is lower: 0.67 kcal/mol for the first, 3.71 kcal/mol for the second.

Going from MMKMEGIALKKRLSWISVCLLVLVSAAGMLFSTAAKTETSSHKAHTEAQVINTFDGVADYLQTYHKLPDNYITKSEAQALGWVASKGNLADVAPGKSIGGDIFSNREGKLPGKSGRTWREADINYTSGFRNSDRVLYSSDWLIYKTTDHYQTFTKIR to MMKMEGIALKKRLSWISVCLLVLVSAAGMLFSTAAKTETSSHKAHTEAQVINTFDGVADYAQTYHKLPDNYITKSEAQALGWVASKGNLADVAPGKSIGGDIFSNREGKLPGKSGRTWREADINYTSGFRNSDRILYSSDWLIYKTTDHYQTFTKIR, the “ddG of mutation (higher = less stable)” value rises from 1.34 kcal/mol to 4.32 kcal/mol.

Going from MMKMEGIALKKRLSWISVCLLVLVSAAGMLFSTAAKTETSSHKAHTEAQVINTFDGVADYLQTYHKLPDNYITKSEAQALGWVASKGNLADVAPGKSIGGDIFSNREGKLPGKSGRTWREADVNYTSGFRNSDRILYSSDWLIYKTTDHYQTFTKIR to MMKMEGIALKKRLSWISVCLLVLVSAAGMLFSTAAKTETSSHKAHTEAQVINTFDGVADYLQTYHKLPDNYITKSEAQALGWVASKGNLADVAPGKSIGGDIFSAREGKLPGKSGRTWREADINYTSGFRNSDRILYSSDWLIYKTTDHYQTFTKIR, the “ddG of mutation (higher = less stable)” value rises from 0.82 kcal/mol to 2.17 kcal/mol.

First: MMKMEGIALKKRLSWISVCLLVLVSAAGMLFSTAAKTETSSHKAHTEAQVINTFDGVADYLQTYHKLPDNYITKSEAQALGWVASKGNLADVAPGKSVGGDIFSNREGKLPGKSGRTWREADINYTSGFRNSDRILYSSDWLIYKTTDHYQTFTKIR
Second: MMKMEGIALKKRLSWISVCLLVLVSAAGMLFSTAAKTETSSHKAHTEAQVINTFDGVADYLQTYQKLPDNYITKSEAQALGWVASKGNLADVAPGKSIGGDIFSNREGKLPGKSGRTWREADINYTSGFRNSDRILYSSDWLIYKTTDHYQTFTKIR
The “ddG of mutation (higher = less stable)” value of the first is higher: 1.8 kcal/mol for the first, 1.44 kcal/mol for the second.

First: MMKMEGIALKKRLSWISVCLLVLVSAAGMLFSTAAKTETSSHKAHTEAQVINTFDGVADYLQTYHKLPDNYITKSEAQALGWVASKGNLADTAPGKSIGGDIFSNREGKLPGKSGRTWREADINYTSGFRNSDRILYSSDWLIYKTTDHYQTFTKIR
Second: MMKMEGIALKKRLSWISVCLLVLVSAAGMLFSTAAKTETSSHKAHTEAQVINTFDGVADYLQTYHKLPDNYITKSEAQALGWVASKGNLADAAPGKSIGGDIFSNREGKLPGKSGRTWREADINYTSGFRNSDRILYSSDWLIYKTTDHYQTFTKIR
The “ddG of mutation (higher = less stable)” value of the first is higher: 2.32 kcal/mol for the first, 1.72 kcal/mol for the second.

Going from MMKMEGIALKKRLSWISVCLLVLVSAAGMLFSTAAKTETSSHKAHTEAQVINTFDGVADYLQTAHKLPDNYITKSEAQALGWVASKGNLADVAPGKSIGGDIFSNREGKLPGKSGRTWREADINYTSGFRNSDRILYSSDWLIYKTTDHYQTFTKIR to MMKMEGIALKKRLSWISVCLLVLVSAAGMLFSTAAKTETSSHKAHTEAQVINTFDGVADYLQTYHKLPDNYITKSEAQALGWVASKGNLADVAPGKSIGGDIFSNREGKLPGKSGRTWREADINYTSGFRNSDRILYASDWLIYKTTDHYQTFTKIR, the “ddG of mutation (higher = less stable)” value falls from 2.43 kcal/mol to 1.94 kcal/mol.

Going from MMKMEGIALKKRLSWISVCLLVLVSAAGMLFSTAAKTETSSHKAHTEAQVINTFDGVADYLQSAHKLPDNYITKSEAQALGWVASKGNLADVAPGKSIGGDIFSNREGKLPGKSGRTWREADINYTSGFRNSDRILYSSDWLIYKTTDHYQTFTKIR to MMKMEGIALKKRLSWISVCLLVLVSAAGMLFSTAAKTETSSHKAHTEAQVINTFDGVADYLQTYHKLPDNYITKSEAQAQGWVASKGNLADVAPGKSIGGDIFSNREGKLPGKSGRTWREADINYTSGFRNSDRILYSSDWLIYKTTDHYQTFTKIR, the “ddG of mutation (higher = less stable)” value falls from 2.55 kcal/mol to 1.3 kcal/mol.

Compared with MMKMEGIALKKRLSWISVCLLVLVSAAGMLFSTAAKTETSSHKAHTEAQVINTFDGVADYLQTYHKLPDNYITKSEAQALGWVASKGNLADVAPGKSIGGDIFSNREGKLPGKSGRTWREADINYTSGFRNSDRILYSADWLIYKTTDHYQTFTKIR, MMKMEGIALKKRLSWISVCLLVLVSAAGMLFSTAAKTETSSHKAHTEAQVINTFDGVADYLQTYHKLPDNYVTKSEAQALGWVASKGNLADVAPGKSIGGDIFSNREGKLPGKSGRTWREADINYTSGFRNSDRILYSSDWLIYKTTDHYQTFTKIR is lower in “ddG of mutation (higher = less stable)” value: 2.8 kcal/mol for the first, 1.12 kcal/mol for the second.

Compared with MMKMEGIALKKRLSWISVCLLVLVSAAGMLFSTAAKTETSSHKAHTEAQVINTFDGVADYLQTYHKLPDNYITKSEAQALGWVASKGNLADVAPGKSIGGDIFSNREGKLPGKSGRTWREADINYTSGFRASDRILYSSDWLIYKTTDHYQTFTKIR, MMKMEGIALKKRLSWISVCLLVLVSAAGMLFSTAAKTETSSHKAHTEAQVINTFDGVADYLQTYHKLPDNYITKSEAQALGWVASKGNLADVAPGKSIGGDIFSNREGKLPGKSGRTWREADIAYTSGFRNSDRILYSSDWLIYKTTDHYQTFTKIR is lower in “ddG of mutation (higher = less stable)” value: 2.02 kcal/mol for the first, 1.66 kcal/mol for the second.

Compared with MMKMEGIALKKRLSWISVCLLVLVSAAGMLFSTAAKTETSSHKAHTEAQVINTFDGVADYLQTYHKLPDNYITKSEAQALGWVASKGNLADVAPGKSIGGDIFSNREGKLPGKSGRTWREADINYTSGFRNSDRILYSSDWLIYKTTDHYQTFTKVR, MMKMEGIALKKRLSWISVCLLVLVSAAGMLFSTAAKTETSSHKAHTEAQVINTFDGVADALQTAHKLPDNYITKSEAQALGWVASKGNLADVAPGKSIGGDIFSNREGKLPGKSGRTWREADINYTSGFRNSDRILYSSDWLIYKTTDHYQTFTKIR is higher in “ddG of mutation (higher = less stable)” value: 0.76 kcal/mol for the first, 5 kcal/mol for the second.

Going from MMKMEGIALKKRLSWISVCLLVLVSAAGMLFSTAAKTETSSHKAHTEAQVINTFDGAADYLQTYHKLPDNYITKSEAQALGWVASKGNLADVAPGKSIGGDIFSNREGKLPGKSGRTWREADINYTSGFRNSDRILYSSDWLIYKTTDHYQTFTKIR to MMKMEGIALKKRLSWISVCLLVLVSAAGMLFSTAAKTETSSHKAHTEAQVINTFDGTADYLQTYHKLPDNYITKSEAQALGWVASKGNLADVAPGKSIGGDIFSNREGKLPGKSGRTWREADINYTSGFRNSDRILYSSDWLIYKTTDHYQTFTKIR, the “ddG of mutation (higher = less stable)” value falls from 3.4 kcal/mol to 2.48 kcal/mol.

Going from MMKMEGIALKKRLSWISVCLLVLVSAAGMLFSTAAKTETSSHKAHTEAQVIATFDGVADYLQTYHKLPDNYITKSEAQALGWVASKGNLADVAPGKSIGGDIFSNREGKLPGKSGRTWREADINYTSGFRNSDRILYSSDWLIYKTTDHYQTFTKIR to MMKMEGIALKKRLSWISVCLLVLVSAAGMLFSTAAKTETSSHKAHTEAQVINTFDGVADYLQTYHKLPDNYITKSEAQALGWTASKGNLADVAPGKSIGGDIFSNREGKLPGKSGRTWREADINYTSGFRNSDRILYSSDWLIYKTTDHYQTFTKIR, the “ddG of mutation (higher = less stable)” value falls from 1.85 kcal/mol to 1.15 kcal/mol.

Going from MMKMEGIALKKRLSWISVCLLVLVSAAGMLFSTAAKTETSSHKAHTEAQVINTFDGVADYLQTYHKLPDNYIAKSEAQALGWVASKGNLADVAPGKSIGGDIFSNREGKLPGKSGRTWREADINYTSGFRNSDRILYSSDWLIYKTTDHYQTFTKIR to MMKMEGIALKKRLSWISVCLLVLVSAAGMLFSTAAKTETSSHKAHTEAQVINTFDGVADYLQTYHKLPDNYIGKSEAQALGWVASKGNLADVAPGKSIGGDIFSNREGKLPGKSGRTWREADINYTSGFRNSDRILYSSDWLIYKTTDHYQTFTKIR, the “ddG of mutation (higher = less stable)” value falls from 1.93 kcal/mol to 1.42 kcal/mol.

First: MMKMEGIALKKRLSWISVCLLVLVSAAGMLFSTAAKTETSSHKAHTEAQVINTFDGVADYLQTYHKLPDNYITKSEAQALGWVASKGNLADVAPGKSIGGDIFSNREGKLPGKSGRTWREADINFTSGFRNSDRILYSSDWLIYKTTDHYQTFTKIR
Second: MMKMEGIALKKRLSWISVCLLVLVSAAGMLFSTAAKTETSSHKAHTEAQVINTFDGVADYLQTYHKLPDNYITKSEAQALGWVASKGNLADVAPGKSIGGDIFSNREGKLPGKSGRTWREADINYTSGFRNSDRILYSSDWLIYKVTDHYQTFTKIR
The “ddG of mutation (higher = less stable)” value of the first is lower: 1.35 kcal/mol for the first, 2.99 kcal/mol for the second.

First: MMKMEGIALKKRLSWISVCLLVLVSAAGMLFSTAAKTETSSHKAHTEAQVINTFDGVADYLQTYHKLPDNYITKSEAQALGWVASKGNLADVAPGKSIGGDIFSNREGKLPGKSGRTWREADINYTSGFRNSDRILYSSDWLIYKTTDHYQVFTKIR
Second: MMKMEGIALKKRLSWISVCLLVLVSAAGMLFSTAAKTETSSHKAHTEAQVINGFDGVADYLQTYHKLPDNYITKSEAQALGWVASKGNLADVAPGKSIGGDIFSNREGKLPGKSGRTWREADINYTSGFRNSDRILYSSDWLIYKTTDHYQTFTKIR
The “ddG of mutation (higher = less stable)” value of the first is higher: 2.25 kcal/mol for the first, 1.21 kcal/mol for the second.

Compared with MMKMEGIALKKRLSWISVCLLVLVSAAGMLFSTAAKTETSSHKAHTEAQVINAFDGVADYLQTYHKLPDNYITKSEAQALGWVASKGNLADVAPGKSIGGDIFSNREGKLPGKSGRTWREADINYTSGFRNSDRILYSSDWLIYKTTDHYQTFTKIR, MMKMEGIALKKRLSWISVCLLVLVSAAGMLFSTAAKTETSSHKAHTEAQVINTFDGVADYLQTYHKLPDNYITKSEAQALGWVASKGNLADVAPGKSIGGDIFSNREGRLPGKSGRTWREADINYTSGFRNSDRILYSSDWLIYKTTDHYQTFTKIR is lower in “ddG of mutation (higher = less stable)” value: 2.15 kcal/mol for the first, 0.43 kcal/mol for the second.
